The source of these data is US20250276076A1 (Seagen, published 2025).

Test [1] has as its target T1, hscFcRN (biotinylated avi-tagged, fused with monomeric Fc) (human, UniProt P55899 24-297; P61769 21-119, limits assumed, biotin on avi tag).
T1 construct: also called hFcRN; hscFcRN hmFc IHH A avi Biotin
The experiment in a line: BLI (Octet HTX, 30 °C), biotinylated hFcRN on streptavidin biosensors, ADC as analyte, 1:1 fit, pH 6.0. An excerpt: (§1) Biotinylated avi-tagged human Fc receptors fused with monomeric Fc (designed and expressed at Seagen) were loaded onto high precision streptavidin biosensors (from ForteBio) to responses around 0.4 nm for all receptors except for hFcγR1 with responses around 1.2 nm. An initial baseline was completed in immobilization buffer (0.1% BSA, 0.02% Tween 20, 1×PBS pH 7.4) followed by a second baseline in kinetic buffer (1% casein, 0.2% Tween 20, 1×PBS pH 7.4 for hFcγRI, IIa, IIIa, and IIb interactions and 1% BSA+0.2% Tween 20, Phosphate Citrate pH 6.0 for hscFcRN interactions). […] Sensorgrams were generated on an Octet HTX system (ForteBio) at 30° C. and globally fitted with the 1:1 kinetic Langmuir isotherm model (Rmax unlinked) after a reference subtraction of the antigen-loaded, 0 nM analyte sensor. Negative controls with the highest concentration of antibodies and ADCs (20 μM) with no Fc receptor immobilized were also included to verify the absence of nonspecific binding of the analyte to the streptavidin biosensors themselves. Specific loading concentrations and times of each receptor to the streptavidin sensors and concentrations of titrated analytes are listed (Table 12 and Table 13).

The target in test [2] is T2, hFcγRIIIa V158 (biotinylated avi-tagged, fused with monomeric Fc) (human, UniProt P08637 17-208, biotin on avi tag).
T2 construct: also called hFcγRIIIa V158 hmFc AAG avi Biotin
T2 sequence (P08637 17-208 F176V): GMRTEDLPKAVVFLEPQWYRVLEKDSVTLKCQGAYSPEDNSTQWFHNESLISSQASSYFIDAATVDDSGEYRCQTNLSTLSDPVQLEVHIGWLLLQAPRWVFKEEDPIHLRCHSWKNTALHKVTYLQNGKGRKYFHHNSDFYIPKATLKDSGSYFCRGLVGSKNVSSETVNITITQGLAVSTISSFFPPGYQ
The experiment in a line: BLI (Octet HTX, 30 °C), biotinylated Fc receptor on streptavidin biosensors, ADC as analyte, 1:1 fit, pH 7.4.
Text: as §1
In general terms: Biolayer interferometry detects binding as a change in optical thickness at a sensor tip.

The target of test [3] is T3, hFcγRIIb (biotinylated avi-tagged, fused with monomeric Fc) (human, UniProt P31994 43-217, biotin on avi tag).
T3 construct: also called hFcγRIIb hmFc AAG avi Biotin
T3 sequence (looked up): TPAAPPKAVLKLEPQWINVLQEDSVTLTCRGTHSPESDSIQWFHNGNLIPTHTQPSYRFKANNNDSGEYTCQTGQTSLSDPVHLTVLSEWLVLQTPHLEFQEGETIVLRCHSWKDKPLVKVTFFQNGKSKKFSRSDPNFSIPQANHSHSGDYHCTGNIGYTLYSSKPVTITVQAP
Described as above.
Text: as §1

Test [4] has as its target T4, hFcγRIIa R131 (biotinylated avi-tagged, fused with monomeric Fc) (human, UniProt P12318 34-217, biotin on avi tag).
T4 construct: also called hFcγRIIa R131 hmFc AAG avi Biotin
T4 sequence (looked up): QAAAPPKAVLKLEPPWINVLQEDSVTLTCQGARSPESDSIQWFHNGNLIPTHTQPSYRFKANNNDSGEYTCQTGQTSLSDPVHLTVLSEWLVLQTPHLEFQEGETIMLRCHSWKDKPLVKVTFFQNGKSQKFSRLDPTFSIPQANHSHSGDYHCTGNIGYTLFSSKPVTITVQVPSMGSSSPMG
Described as above.
Text: as §1

The target in test [5] is T5, soluble human ALPP-Fc fusion dimer (human, UniProt P05187 23-506).
T5 construct: Made in CHO cells; also called hALPP; hALPP Fc
T5 sequence (P05187 23-506 limits assumed): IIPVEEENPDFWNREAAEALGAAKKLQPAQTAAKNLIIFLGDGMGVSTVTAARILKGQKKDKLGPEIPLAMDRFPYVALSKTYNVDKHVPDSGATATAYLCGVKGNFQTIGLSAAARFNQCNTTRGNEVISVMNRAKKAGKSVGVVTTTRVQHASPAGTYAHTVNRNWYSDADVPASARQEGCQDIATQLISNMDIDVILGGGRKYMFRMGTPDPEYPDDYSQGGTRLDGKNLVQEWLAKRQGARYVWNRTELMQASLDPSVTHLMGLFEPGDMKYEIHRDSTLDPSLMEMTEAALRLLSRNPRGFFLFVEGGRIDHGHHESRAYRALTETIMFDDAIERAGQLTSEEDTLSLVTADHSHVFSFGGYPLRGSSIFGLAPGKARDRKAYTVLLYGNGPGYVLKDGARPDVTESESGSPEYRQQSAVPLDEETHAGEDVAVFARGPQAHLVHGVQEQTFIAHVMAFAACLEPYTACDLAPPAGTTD
In words: BLI (Octet), antibody on anti-human Fab-CH1 biosensors, hALPP Fc homodimer as analyte, pH 7.4, 37 °C, bivalent affinity. An excerpt:
(§2) Soluble human ALPP-Fc and ALPPL2-Fc fusion dimer proteins were generated in CHO cells to be used as the analyte. […] After reference subtraction of the probe only curve, the data was globally fit with a 1:1 model with the Rmax sensor unlinked.

Test [6] deals with T5, soluble human ALPP-Fc fusion dimer. The experiment in a line: BLI (Octet Red 384), antibody on FAB2G biosensors, ALPP-Fc dimer as analyte, bivalent, pH 7.4, 37 C, 1:1 global fit.
Text: as §2

Test [7] deals with T6, soluble human ALPPL2-Fc fusion dimer (human, UniProt P10696 20-503).
T6 construct: Made in CHO cells; also called hALPPL2
T6 sequence (P10696 20-503 limits assumed): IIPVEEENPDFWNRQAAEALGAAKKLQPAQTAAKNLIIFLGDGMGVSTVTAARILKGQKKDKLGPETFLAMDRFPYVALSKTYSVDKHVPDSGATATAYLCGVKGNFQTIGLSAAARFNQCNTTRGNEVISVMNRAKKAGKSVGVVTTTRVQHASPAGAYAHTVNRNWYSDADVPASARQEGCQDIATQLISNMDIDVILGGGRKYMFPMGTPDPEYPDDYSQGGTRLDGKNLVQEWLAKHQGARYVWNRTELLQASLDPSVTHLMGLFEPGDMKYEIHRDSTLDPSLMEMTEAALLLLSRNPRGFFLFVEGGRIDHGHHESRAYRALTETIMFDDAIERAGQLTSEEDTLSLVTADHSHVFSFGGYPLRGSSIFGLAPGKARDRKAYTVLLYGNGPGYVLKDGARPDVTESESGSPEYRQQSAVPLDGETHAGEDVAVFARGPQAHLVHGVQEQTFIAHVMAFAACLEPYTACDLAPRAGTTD
In words: BLI (Octet Red 384), antibody on FAB2G biosensors, ALPPL2-Fc dimer as analyte, bivalent, pH 7.4, 37 C, 1:1 global fit.
Text: as §2

The target in test [8] is T6, soluble human ALPPL2-Fc fusion dimer. In words: BLI, antibody on FAB2G biosensors, ALPPL2-Fc dimer as analyte, bivalent, pH 6.0, 37 C.
Text: as §2
(§3) The only difference was the use of a different kinetic buffer (1% casein and 0.2% Tween20 in phosphate citrate pH 6.0).

The target of test [9] is T5, soluble human ALPP-Fc fusion dimer. The experiment in a line: BLI, antibody on FAB2G biosensors, ALPP-Fc dimer as analyte, bivalent, pH 6.0, 37 C.
Text: as §2, §3

Test [10] deals with T7, human ALPPL2 (on cells) (human, UniProt P10696 20-503).
T7 construct: the construct in the cells is not further defined; also called HEK-ALPPL2 cells; ALPPL2-expressing LoVo cells
T7 sequence (P10696 20-503 limits assumed): as above
The experiment in a line: flow cytometry saturation binding on ALPPL2-expressing HEK293 cells (row 'nM Kd' of the table under the plot). How it is done: (§4) Cynomolgus ALPP, human ALPP, ALPPL2, ALPI and ALPL-expressing HEK293 cells were used to evaluate specificity and binding affinity. Briefly, one hundred thousand target-expressing HEK293 cells were transferred to 96-well plates. Cells were pelleted by centrifugation and resuspended in 100 μL of PBS+2% w/v BSA. After blocking, cells were resuspended in PBS+2% w/v BSA with unlabeled monoclonal anti-ALPP/ALPPL2 antibodies ranging in concentration from 8 pM to 666 nM and incubated on ice for 30 minutes. Cells were washed twice in PBS and resuspended in R-PE labeled secondary goat anti-human or anti-mouse antibodies (Jackson Immunoresearch, West Grove, PA) for 30 minutes on ice. […] Fluorescence was analyzed using an Attune NxT flow cytometer, and the percent of saturated fluorescent signal was used to determine percent bound and to subsequently calculate apparent KD.
A general note: In flow cytometry, cells or beads pass a laser one at a time.

Test [11] addresses T7, human ALPPL2 (on cells). The experiment in a line: flow cytometry on ALPPL2-expressing HEK293 cells. How it is done: as §4
The target in test [12] is T8, human ALPP (on cells) (human, UniProt P05187 23-506).
T8 construct: the construct in the cells is not further defined; also called placental alkaline phosphatase; PLAP
T8 sequence (P05187 23-506 limits assumed): as the sequence (P05187 23-506 limits assumed) above
In words: flow cytometry saturation binding on ALPP-expressing HEK293 cells (row 'nM Kd' of the table under the plot). On the procedure: as §4

Test [13] has as its target T8, human ALPP (on cells). In words: flow cytometry on ALPP-expressing HEK293 cells. On the procedure:
as §4

T1 sequence (P55899 24-297 limits assumed, form in doubt, chain 1 of 2): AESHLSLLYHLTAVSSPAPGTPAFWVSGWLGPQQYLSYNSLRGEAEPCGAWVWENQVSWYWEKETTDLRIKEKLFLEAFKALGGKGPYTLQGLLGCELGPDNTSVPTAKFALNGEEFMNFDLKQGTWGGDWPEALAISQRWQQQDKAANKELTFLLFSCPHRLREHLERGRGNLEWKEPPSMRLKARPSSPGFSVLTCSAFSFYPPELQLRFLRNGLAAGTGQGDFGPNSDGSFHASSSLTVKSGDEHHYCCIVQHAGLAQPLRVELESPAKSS
T1 sequence (P61769 21-119 limits assumed, form in doubt, chain 2 of 2): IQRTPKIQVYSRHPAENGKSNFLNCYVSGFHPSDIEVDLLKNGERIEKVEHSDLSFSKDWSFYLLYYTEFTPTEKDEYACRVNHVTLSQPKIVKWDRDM

B1: h12F3 HGLF-mp-dLAE-MMAE (antibody)
VH: not shown
VL: DTQMTQSPSSLSASVGDRVTITCQASQDINKYLAWYQYKPGKAPKLLIHYTSSLQSGVPSRFSGSGSGRDYTFTISSLQPEDIATYYCLQYDNLYTFGQGTKLEIKRTVAAPSVFIFPPSDEQLKSGTASVVCLLNNFYPREAKVQWKVDNALQSGNSQESVTEQDSKDSTYSLSSTLTLSKADYEKHKVYACEVTHQGLSSPVTKSFNRGEC
modifications: mp-dLAE-PABC-MMAE drug-linker on cysteines of the partially reduced antibody, 4 loads per antibody (chain and site not stated)
notes: antibody-drug conjugate of h12F3 HGLF; also called h12F3-mp-dLAE-MMAE; HGLF-dLAE-MMAE(4); copies: 2 + 2
Take B1: the results for the Kd in test [1], in [2] and in test [3] were 10.6 nM, 1100 nM and 36000 nM, respectively.

B2: h12F3 HGLF-mc-vc-MMAE (antibody)
VH: not shown
VL: DTQMTQSPSSLSASVGDRVTITCQASQDINKYLAWYQYKPGKAPKLLIHYTSSLQSGVPSRFSGSGSGRDYTFTISSLQPEDIATYYCLQYDNLYTFGQGTKLEIKRTVAAPSVFIFPPSDEQLKSGTASVVCLLNNFYPREAKVQWKVDNALQSGNSQESVTEQDSKDSTYSLSSTLTLSKADYEKHKVYACEVTHQGLSSPVTKSFNRGEC
modifications: mc-vc-PABC-MMAE drug-linker on cysteines of the partially reduced antibody, 4 loads per antibody (chain and site not stated)
notes: antibody-drug conjugate of h12F3 HGLF; also called h12F3 HGLF-me-vc-MMAE; h12F3 HGLF-vc-MMAE(4); copies: 2 + 2
B2: the figures for the Kd in test [1], in [4] and in [3] were 13.2 nM, 7300 nM and 67000 nM, respectively.

B3: h12F3 HFLD (antibody, V domains shown)
VH: EVQLVESGGGLVQPGRSLRLSCTASGFTFTDYYMSWVRQAPGKGLEWLALIRNKATGYTTEYSASVKGRFTISRDNSKSILYLQMNSLKTEDTAVYYCARASFYYDGKVLAYWGQGTLVTVSS
VL: DTQMTQSPSSLSASVGDRVTITCQASQDINKYIAWYQQKPGKAPKLLIYYTSSLQPGVPSRFSGSGSGTDYTFTISSLQPEDIATYYCLQYDNLYTFGQGTKLEIKR
notes: humanized 12F3 IgG variant
With B3, in [5], the Kd worked out at 3.5 nM.

B4: h12F3 HGLF (antibody, V domains shown)
VH: EVQLVESGGGLVQPGRSLRLSCTASGFTFTDYYMSWVRQAPGKGLEWLALIRNKATGYTTEYTASVKGRFTISRDNSKSILYLQMNSLKTEDTAVYYCARASFYYDGKVLAYWGQGTLVTVSS
VL: DTQMTQSPSSLSASVGDRVTITCQASQDINKYLAWYQYKPGKAPKLLIHYTSSLQSGVPSRFSGSGSGRDYTFTISSLQPEDIATYYCLQYDNLYTFGQGTKLEIK
notes: Whole humanized IgG; also called humanized 12F3 HGLF; naked h12F3 antibody
Turning to B4, the Kd in test [6] was 0.13 nM; in test [7], 0.044 nM; in test [8] it was 4.8 nM; in [9] it was 6.8 nM.

B5: murine antibody 12F3 (antibody, V domains shown)
VH: EVKLVESGGGLVQPGGSLSLSCAASGFTFTDYYMSWVRQPPGKALEWLALIRNKATGYTTEYSASVKGRFTISRDNSQSILYLQMNALRAEDSATYYCARASFYYDGKVLAYWGQGTLVTVSA
VL: DTQMTQSPSSLSASLGGKVTITCKASQDINKYIAWYQYKTGKGPRLLIHYTSTLQPGIPSRFSGSGSGRDYSFSISNLEPEDIATYYCLQYDNLYTFGGGTKLEIK
notes: mouse hybridoma antibody; also called SG82-12F3; m12F3
Broadly, the EC50 (read off the curve) is the concentration giving half of the maximal effect. The low end stands for a more potent agent, the high end for a less potent agent. On to B5, for which the Kd in the test with human ALPPL2 (on cells) [10] came out at 1.48 nM; with human ALPP (on cells) [12] it was 1.76 nM. For the same molecule, the “EC50 (read off the curve)” value with human ALPPL2 (on cells) [11] and with human ALPP (on cells) [13] was around 0.3 µg/mL throughout.
